Experimental findings from publication PMC8476742, “Mapping Potential Determinants of Peroxidative Activity in an Evolved Fungal Peroxygenase from Agrocybe aegerita” (Frontiers in Bioengineering and Biotechnology, 2021) are described below.

What all share (experiment): purified protein
Common to all, as to format: biochemical, Cyclocybe aegerita

Substrate in data set [1]: CCn1c(=NN=c2sc3cc(S(=O)(=O)O)ccc3n2CC)sc2cc(S(=O)(=O)O)ccc21
Substrate in data set [2]: O=[N+]([O-])c1ccc2c(c1)OCO2
As to conditions: 1 mM H2O2, 100 mM potassium phosphate pH 7.0, 15% acetonitrile.

Substrate in data set [3]: COc1ccc(CO)cc1OC
To be noted: 2 mM H2O2, 100 mM potassium phosphate pH 7.0, clone 23.

The mark [4] stands for this setting: 2 mM H2O2, 100 mM sodium phosphate-citrate pH 3.0, clone 8.
Where [5] appears, read: 2 mM H2O2, 100 mM sodium phosphate-citrate pH 3.0, clone 23.

B1: PaDa-I (Cyclocybe aegerita; A359H/A360H/F354L/G361I/I291V/L110F/V100A/V118I) (protein)
chain: EPGLPPGPLENSSAKLVNDEAHPWKPLRPGDIRGPCPGLNTLASHGYLPRNGVATPAQIINAVQEGFNFDNQAAIFATYAAHLVDGNLITDLLSIGRKTRLTGPDPPPPASVGGLNEHGTFEGDASMTRGDAFFGNNHDFNETLFEQLVDYSNRFGGGKYNLTVAGELRFKRIQDSIATNPNFSFVDFRFFTAYGETTFPANLFVDGRRDDGQLDMDAARSFFQFSRMPDDFFRAPSPRSGTGVEVVVQAHPMQPGRNVGKINSYTVDPTSSDFSTPCLMYEKFVNITVKSLYPNPTVQLRKALNTNLDFLFQGVHHICTQVFPYGRD
notes: evolved secretion variant, mature secreted enzyme; signal peptide mutations F12Y, A14V, R15G, A21D; expressed in Saccharomyces cerevisiae BJ5464, purified by ion exchange, no tag mentioned; heme-thiolate
As for B1, in “purified protein [1]” (setting [4]), the Km was found to be 14 ± 2.4 µM, the kcat turned out to be 239 ± 13 s⁻¹ and the specificity constant (kcat/Km) was 1.68e+07 ± 3.03e+06 M⁻¹ s⁻¹. For the same protein, in the data set “purified protein [2]” (clone 8), the Km was found to be 437 ± 53 µM, the kcat is 368 ± 19 s⁻¹ and the catalytic efficiency (kcat/Km) is 842000 ± 111000 M⁻¹ s⁻¹.

B2: PaDa-I (Cyclocybe aegerita; A359S/A360N/F354L/G361L/I291V/L110F/V100A/V118I/V358L) (protein)
chain: EPGLPPGPLENSSAKLVNDEAHPWKPLRPGDIRGPCPGLNTLASHGYLPRNGVATPAQIINAVQEGFNFDNQAAIFATYAAHLVDGNLITDLLSIGRKTRLTGPDPPPPASVGGLNEHGTFEGDASMTRGDAFFGNNHDFNETLFEQLVDYSNRFGGGKYNLTVAGELRFKRIQDSIATNPNFSFVDFRFFTAYGETTFPANLFVDGRRDDGQLDMDAARSFFQFSRMPDDFFRAPSPRSGTGVEVVVQAHPMQPGRNVGKINSYTVDPTSSDFSTPCLMYEKFVNITVKSLYPNPTVQLRKALNTNLDFLFQGLSNLCTQVFPYGRD
notes: as for B1
Regarding B2, in the data set “purified protein [1]” (setting [5]), the Km came to 15 ± 2 µM, the kcat is 250 ± 11 s⁻¹ and the catalytic efficiency (kcat/Km) came to 1.67e+07 ± 2.34e+06 M⁻¹ s⁻¹. Further, in “purified protein [3]”, the Michaelis-Menten constant (Km) is 4920 ± 450 µM, the catalytic constant (kcat) came out at 151 ± 4 s⁻¹ and the kcat/Km came out at 31000 ± 3000 M⁻¹ s⁻¹. Further, in the data set “purified protein [2]” (clone 23), the Km amounted to 376 ± 40 µM, the catalytic constant (kcat) was determined as 367 ± 16 s⁻¹ and the specificity constant (kcat/Km) is 976000 ± 112000 M⁻¹ s⁻¹.
